Results published in PMC7373317, “Structural basis of human full-length kindlin-3 homotrimer in an auto-inhibited state” (PLoS Biology, 2020).

Key:
[1] = target: T1, human full-length kindlin-2, from Sf9 insect cells (monomer) (human), Q96AC1; experiment: SEC; analytical gel filtration, Superdex 200 Increase 10/300 GL, 20 mM Tris-HCl pH 7.5, 150 mM NaCl, calibrated with HMW kit; settings: remark: other sources report otherwise
T1 chain: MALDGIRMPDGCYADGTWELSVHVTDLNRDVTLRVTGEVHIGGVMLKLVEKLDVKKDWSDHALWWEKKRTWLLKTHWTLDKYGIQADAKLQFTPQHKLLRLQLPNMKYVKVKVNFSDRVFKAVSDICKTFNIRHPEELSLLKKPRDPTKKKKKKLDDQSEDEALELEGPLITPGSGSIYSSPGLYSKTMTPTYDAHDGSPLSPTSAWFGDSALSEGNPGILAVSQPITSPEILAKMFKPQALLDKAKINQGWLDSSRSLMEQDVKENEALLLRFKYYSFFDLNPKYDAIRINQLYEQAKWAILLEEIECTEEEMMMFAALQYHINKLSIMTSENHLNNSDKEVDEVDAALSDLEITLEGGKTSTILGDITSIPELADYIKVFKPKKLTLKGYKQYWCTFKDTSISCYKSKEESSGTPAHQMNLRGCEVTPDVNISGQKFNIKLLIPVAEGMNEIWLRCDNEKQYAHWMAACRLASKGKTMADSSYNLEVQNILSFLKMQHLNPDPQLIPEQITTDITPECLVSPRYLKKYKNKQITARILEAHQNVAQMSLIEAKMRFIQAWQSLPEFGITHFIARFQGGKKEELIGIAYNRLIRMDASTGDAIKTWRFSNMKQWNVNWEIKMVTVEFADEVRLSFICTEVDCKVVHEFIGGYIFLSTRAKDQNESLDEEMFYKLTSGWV

[2] = target: T1, human full-length kindlin-2, from Sf9 …; experiment: SEC-MALS; Superdex 200 increase 5/150 GL, 20 mM HEPES pH 7.5, 500 mM NaCl, at least 2 mg/mL; settings: remark: other sources report otherwise
[3] = target: human full-length kindlin-2, from Sf9 insect cells (monomer) (human) (UniProt Q96AC1); experiment: ITC; MicroCal PEAQ-ITC, 25 °C, 50 mM HEPES pH 7.5, 150 mM NaCl; 500 μM ITGB1 tail injected into 50 μM monomer or trimer kindlin
[4] = target: human full-length kindlin-3, wild type, from Sf9 insect cells (monomer) (human, UniProt Q86UX7 1-667); experiment: as above; settings: both partners purified
Chain of human full-length kindlin-3, wild type, from Sf9 insect cells (monomer) (Q86UX7 whole entry): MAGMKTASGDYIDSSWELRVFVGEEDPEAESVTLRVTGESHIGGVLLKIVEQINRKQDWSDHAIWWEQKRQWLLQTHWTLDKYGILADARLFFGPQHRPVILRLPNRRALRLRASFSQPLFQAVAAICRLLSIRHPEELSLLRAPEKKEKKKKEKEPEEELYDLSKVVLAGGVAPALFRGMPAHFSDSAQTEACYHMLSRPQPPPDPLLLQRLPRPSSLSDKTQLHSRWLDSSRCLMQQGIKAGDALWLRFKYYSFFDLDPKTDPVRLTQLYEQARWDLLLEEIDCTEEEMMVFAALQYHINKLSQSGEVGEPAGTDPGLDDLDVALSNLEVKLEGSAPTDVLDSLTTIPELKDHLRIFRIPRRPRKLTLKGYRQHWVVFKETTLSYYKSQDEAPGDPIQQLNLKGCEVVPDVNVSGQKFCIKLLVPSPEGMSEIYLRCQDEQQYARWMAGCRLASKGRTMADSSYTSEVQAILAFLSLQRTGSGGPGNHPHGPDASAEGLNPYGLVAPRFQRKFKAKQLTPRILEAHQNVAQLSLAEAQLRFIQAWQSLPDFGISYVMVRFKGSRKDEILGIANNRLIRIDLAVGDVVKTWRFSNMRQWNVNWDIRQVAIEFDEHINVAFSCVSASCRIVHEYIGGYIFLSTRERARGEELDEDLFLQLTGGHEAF

B1: human full-length kindlin-2, from Sf9 insect cells (monomer), Q96AC1 1-680 (natural protein)
chain: MALDGIRMPDGCYADGTWELSVHVTDLNRDVTLRVTGEVHIGGVMLKLVEKLDVKKDWSDHALWWEKKRTWLLKTHWTLDKYGIQADAKLQFTPQHKLLRLQLPNMKYVKVKVNFSDRVFKAVSDICKTFNIRHPEELSLLKKPRDPTKKKKKKLDDQSEDEALELEGPLITPGSGSIYSSPGLYSKTMTPTYDAHDGSPLSPTSAWFGDSALSEGNPGILAVSQPITSPEILAKMFKPQALLDKAKINQGWLDSSRSLMEQDVKENEALLLRFKYYSFFDLNPKYDAIRINQLYEQAKWAILLEEIECTEEEMMMFAALQYHINKLSIMTSENHLNNSDKEVDEVDAALSDLEITLEGGKTSTILGDITSIPELADYIKVFKPKKLTLKGYKQYWCTFKDTSISCYKSKEESSGTPAHQMNLRGCEVTPDVNISGQKFNIKLLIPVAEGMNEIWLRCDNEKQYAHWMAACRLASKGKTMADSSYNLEVQNILSFLKMQHLNPDPQLIPEQITTDITPECLVSPRYLKKYKNKQITARILEAHQNVAQMSLIEAKMRFIQAWQSLPEFGITHFIARFQGGKKEELIGIAYNRLIRMDASTGDAIKTWRFSNMKQWNVNWEIKMVTVEFADEVRLSFICTEVDCKVVHEFIGGYIFLSTRAKDQNESLDEEMFYKLTSGWV
[1]
  stoichiometry N: 3
[2]
  stoichiometry N: 3

B2: human integrin β1 cytoplasmic tail (ITGB1 residues 773–798) (domain or fragment, UniProt P05556-1 773-798, looked up)
chain: AKWDTGENPIYKSAVTTVVNPKYEGK
notes: integrin beta-1, human, cytoplasmic tail residues 773-798; pNH-TrxT, N-terminal cleavable 6xHis thioredoxin tag; no cleavage step is described and the ITC control was the His-Trx tag alone, so the tag was probably kept (surmise); also called ITGB1 tail; integrin β1 tail
[3]
  Kd: 13.4 µM
[4]
  Kd: ~200 µM
